# T1: Smc5(G1054C) (S. cerevisiae, UniProt Q08204 1-1093, G1054C)
# T1 construct: Smc5, S. cerevisiae; subunit of the Smc5/6 hexamer; Stood in the assay as a subunit of the purified Smc5/6 hexamer (Smc5, Smc6, Nse1-4); also called Smc5 with the engineered cysteine of the Smc5/Nse4 interface
# T1 sequence (looked up): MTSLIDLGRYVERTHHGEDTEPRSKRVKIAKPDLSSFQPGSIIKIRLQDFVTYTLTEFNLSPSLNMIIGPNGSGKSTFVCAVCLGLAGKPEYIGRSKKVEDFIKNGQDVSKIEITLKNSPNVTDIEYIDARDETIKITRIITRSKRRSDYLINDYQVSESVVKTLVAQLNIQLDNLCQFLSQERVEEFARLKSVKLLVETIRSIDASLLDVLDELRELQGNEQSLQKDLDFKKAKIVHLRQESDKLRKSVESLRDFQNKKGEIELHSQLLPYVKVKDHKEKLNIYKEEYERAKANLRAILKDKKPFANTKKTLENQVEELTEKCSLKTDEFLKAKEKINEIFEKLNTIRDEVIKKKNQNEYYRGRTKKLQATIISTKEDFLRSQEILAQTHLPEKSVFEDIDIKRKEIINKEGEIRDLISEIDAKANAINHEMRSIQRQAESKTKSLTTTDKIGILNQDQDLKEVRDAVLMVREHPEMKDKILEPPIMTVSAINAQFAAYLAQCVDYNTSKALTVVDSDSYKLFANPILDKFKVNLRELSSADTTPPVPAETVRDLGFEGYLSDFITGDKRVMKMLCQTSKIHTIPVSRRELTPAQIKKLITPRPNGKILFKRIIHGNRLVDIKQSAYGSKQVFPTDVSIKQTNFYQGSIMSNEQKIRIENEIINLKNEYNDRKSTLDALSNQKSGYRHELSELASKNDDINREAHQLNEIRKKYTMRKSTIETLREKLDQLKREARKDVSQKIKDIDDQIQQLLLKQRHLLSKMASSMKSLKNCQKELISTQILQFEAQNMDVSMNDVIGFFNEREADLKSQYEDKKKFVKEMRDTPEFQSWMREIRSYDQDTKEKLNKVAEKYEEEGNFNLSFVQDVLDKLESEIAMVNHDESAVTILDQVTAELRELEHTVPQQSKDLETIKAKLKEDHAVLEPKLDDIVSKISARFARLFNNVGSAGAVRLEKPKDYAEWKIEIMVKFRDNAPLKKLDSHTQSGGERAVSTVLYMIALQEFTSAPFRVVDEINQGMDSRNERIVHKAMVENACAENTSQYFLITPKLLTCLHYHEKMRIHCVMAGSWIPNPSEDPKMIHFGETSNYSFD
# Target: T1, Smc5(G1054C)
# Assay: cross-linking; as a1 with the Nse5/6 dimer added in 1.25 x molar excess (0.625 uM) to the hexamer; SDS-PAGE, Coomassie
# Conditions: both partners purified
binder,measurement,value
"Nse5/6 dimer (complex, S. cerevisiae, Nse5, S. cerevisiae; a native cysteine of it cross-links to Smc5(G1054C); Nse6, S. cerevisiae; also called Nse5/6 loader; loader Nse5/6) chain 1: MDGALINSVLYVSPRNGAHYFVELTEKHLLAFEMLNSMCLLENYDHVLLFLECQFGKSHNLAVIPFDIILVLFTLSTLSEYYKEPILRANDPYNTSRETLSRRALKLLQKYLAILKEFDSEQYNLYDLELLRCQFFLAIDTLTPKKQKWGFDRFRRTKSESGVTYRQNASVDPELDQAKTFKNPYRSYISCLEQRNTILGNRLLNLKLNEPGEFINMILWTLSNSLQESTPLFLSSHEIWMPLLEILIDLFSCRQDYFIQHEVAQNVSKSLFVQRLSESPLAVFFESLNTRNFANRFSEYVFLNCDYKLPSDNYATPVHPVYNGENTIVDTYIPTIKCSPLYKSQKSLALRRKLIGSCFKLLLRVPDGHRLITPRIVADDVIQGISRTLASFNDILQFKKFFMTENLSQESYFIPLLAEGTLSEILKDTQECVVILTLVENLSDGVSFCNEVIGLVKSKCFAFTEQCSQASYEEAVLNIEKCDVCLLVLLRYLLHLIGTEAILDAKEQLEMLHAIEKNDSGRRQWAKALNLGNDPPLLYPIVSQMFGVHDKSVIIE chain 2: MGSVNSSPNEEFETVPDSQISGFDSPLIPTSVGSYFRDDDDDEKVHPNFISDPENDSLNSDEEFSSLENSDLNLSGAKAESGDDFDPILKRTIISKRKAPSNNEDEEIVKTPRKLVNYVPLKIFNLGDSFDDTITTTVAKLQDLKKEILDSPRSNKSIVITSNTVAKSELQKSIKFSGSIPEIYLDVVTKETISDKYKDWHFISKNCHYEQLMDLEMKDTAYSFLFGSSRSQGKVPEFVHLKCPSITNLLVLFGVNQEKCNSLKINYEKKENSRYDNLCTIFPVNKMLKFLMYFYSDDDNDDVREFFLKAFICLILDRKVFNAMESDHRLCFKVLELFNEAHFINSYFEIVDKNDFFLHYRLLQIFPHLQSALLRRRFSEKQGRTETIQQNIIKEFNEFFDCKNYKNLLYFILTMYGSKFIPFGPKCQVTEYFKDCILDISNETTNDVEISILKGILNLFSKIR",binding result,binds
